# Source: patent publication US20250171532A1 (NB HEALTH LABORATORY, published 2025)
# Residue numbers refer to the chain shown, from its start.
# T1: human LPA3 with FLAG tag (human LPA3 gene transfected cell) (human, UniProt Q9UBY5 1-353)
# T1 construct: also called EDG7; not shown: FLAG tag added at the 5' terminal of the gene
# T1 sequence: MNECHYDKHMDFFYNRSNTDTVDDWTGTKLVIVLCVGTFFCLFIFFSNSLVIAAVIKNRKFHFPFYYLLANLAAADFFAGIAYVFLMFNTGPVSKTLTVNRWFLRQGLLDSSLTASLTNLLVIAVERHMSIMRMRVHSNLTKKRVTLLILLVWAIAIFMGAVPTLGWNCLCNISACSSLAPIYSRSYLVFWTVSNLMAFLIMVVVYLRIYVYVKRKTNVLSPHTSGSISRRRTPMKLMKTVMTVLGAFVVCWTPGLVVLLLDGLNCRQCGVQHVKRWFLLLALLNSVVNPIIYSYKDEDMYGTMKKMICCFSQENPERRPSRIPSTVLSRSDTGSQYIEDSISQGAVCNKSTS
# T2: mouse LPA3 with FLAG tag (mouse LPA3 gene transfected cell) (mouse, UniProt Q9EQ31 1-354)
# T2 construct: not shown: FLAG tag added at the 5' terminal of the gene
# T2 sequence: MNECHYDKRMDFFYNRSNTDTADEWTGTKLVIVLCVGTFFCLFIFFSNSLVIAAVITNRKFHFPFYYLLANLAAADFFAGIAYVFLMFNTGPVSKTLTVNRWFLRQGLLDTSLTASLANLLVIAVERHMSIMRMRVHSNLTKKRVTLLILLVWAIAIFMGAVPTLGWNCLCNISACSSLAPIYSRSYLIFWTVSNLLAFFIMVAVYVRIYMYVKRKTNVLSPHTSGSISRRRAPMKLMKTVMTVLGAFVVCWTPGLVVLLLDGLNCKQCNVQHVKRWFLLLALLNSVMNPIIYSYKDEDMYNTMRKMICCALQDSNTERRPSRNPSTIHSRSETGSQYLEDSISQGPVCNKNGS
# B1: 210309-2-D (antibody, mouse IgG1, V domains shown)
# VH: QVQLQQSGAELARPGASVKLSCKASGYTFTSYGISWVKQRTGQGLEWIGEIYPRSGNTYYNEKVKGKATLTADKSSSTAYMELRSLTSEDSAVYFCARESIFLRLGWYFDVWGTGTTVTVSS
# VL: DIQMTQSPASLSASVGETVTITCRASDNIYRFLAWYQQKQGKSPQLLVYNAKTLAEGVPSRFSGSGTGTQFSLKINSLQPEDFGIYYCQHHYGPPLTFGAGTKLELK
# notes: Mouse monoclonal from human LPA1 immunization
# B2: 211222-1-G (antibody, mouse IgG1, V domains shown)
# VH: QVQVQQSGAELARPGASVRLSCKASGYTFTSFGVNWVKQRTGQGLEWIGQIYPRTGTTYHNERFKGKATLTADKSSSTAYMELRSLTSEDSAVYFCAREGDRYSLAYWGQGTLVTVSA
# VL: B1 VL with D27E, A55V, T67S, S77N, I85S, P94I
# notes: as for B1
# B3: 210420-3-E (antibody, mouse IgG1, V domains shown)
# VH: QLQLQQSGAELARPGASVKLSCKASGYTFASFGISWVKQRAGQGLEYIGEIYPRSGTTYFNEKFRGKATLTADKSSSTAYMELRRLTSEDSAVYFCAREGVRRYAMDYWGQGTSVTVSS
# VL: B1 VL with M4V, D27G, R31S, T67S, I85S, P94I, E105D
# notes: Mouse monoclonal from mouse LPA1 immunization
# B4: 210420-4-E (antibody, mouse IgG1, V domains shown)
# VH: B3 VH with Q3H, K19R, A41T, T71S, R85S
# VL: B1 VL with M4V, D27G, R31S, T67S, N76S, I85S, P94I, E105D
# notes: as for B3
# Experiments:
# human LPA1 [1] = target: T3, human LPA1 (human, UniProt Q92633 1-364); assay: flow cytometry, human LPA1-stably expressing CHO cells, median fluorescence intensity
# T3 construct: Untagged, on human LPA1-stably expressing CHO cells (CHO-K1); also the endogenous receptor on the human lung fibroblast line printed as IMIR-90; also called human lysophosphatidic acid receptor 1; hLPA1
# Description: (§1) The human LPA1-stably expressing CHO cell and the mouse LPA1-stably expressing CHO cell were washed with PBS, then detached from the cell culture dishes by an enzyme-free cell dissociation buffer (Thermo Fisher Scientific, Inc.), then washed with PBS, and then collected by centrifugation. The human LPA1-stably expressing CHO cell and the mouse LPA1-stably expressing CHO cell were suspended at 1×10⁷ cells/mL in Fc Block (Sci-Tech Biosciences, Inc.) diluted by 500 times in FACS buffer, and then allowed to stand at 4° C. for 30 minutes to block the cells. The cells were collected by centrifugation and suspended in FACS buffer at 4×10⁶ cells/mL, and this suspension was dispensed into a V-bottom 96-well plate (Thermo Fisher Scientific, Inc.) at 25 μL (1×10⁵ cells)/well. As primary antibodies, the eleven types of LPA1 antibodies produced and purified by the method described above and a mouse isotype control antibody (Fujifilm Wako Pure Chemicals Corporation) were diluted stepwise, which was added to each well at 25 μL/well, and allowed to stand at 4° C. for 1 hour. The cells were collected by centrifugation and washed with 120 μL of FACS buffer. This washing operation was repeated twice. To the cell sediment, 25 μL each of Goat Anti-Mouse IgG H&L (DyLight 650) (Abcam) that was a secondary antibody diluted by 500 times in FACS buffer was dispensed, then suspended, and then allowed to stand at 4° C. for 1 hour. The cells were washed twice, then suspended in 50 μL of FACS buffer, and the binding of antibodies to the cells was measured using a flow cytometer (Agilent Novocyte).
# (§2) A graph was created, in which a concentration of the antibody was plotted on the […] axis, and a median fluorescence intensity of the flow cytometer histogram was plotted on the horizontal axis. All of the eleven antibodies were confirmed to dose-dependently bind to the human LPA1-stably expressing CHO cell and the mouse LPA1-stably expressing CHO cell. The results of the binding of each antibody to the human LPA1-stably expressing CHO cell are presented in FIG. 2A to FIG. 2K, and the results of the binding of each antibody to the mouse LPA1-stably expressing CHO cell are presented in FIG. 3A to FIG. 3K.
# [2] = target: T1, human LPA3 with FLAG tag (human LPA3 …); assay: flow cytometry, transfected HEK293FT cells, histogram shift
# Description: (§3) BTEK293FT cell was transfected with 10 μg of an expression vector carrying each synthetic gene using Lipofectamine 2000, to prepare a human LPA1 gene transfected cell, a mouse LPA1 gene transfected cell, a human LPA2 gene transfected cell, a mouse LPA2 gene transfected cell, a human LPA3 gene transfected cell, and a mouse LPA3 gene transfected cell.
# (§4) The next day, the cells were washed with PBS, then detached from the cell culture dishes by an enzyme-free cell dissociation buffer (Thermo Fisher Scientific, Inc.), then washed with PBS, and then collected by centrifugation. Goat serum (Thermo Fisher Scientific, Inc.) was diluted by 2 times in FACS buffer (PBS containing 1% o of FBS), into which the cells were suspended at 1×10⁷ cells/mL. This suspension was allowed to stand at 4° C. for 30 minutes to block the cells. The cells were collected by centrifugation and suspended in FACS buffer at 4×10⁶ cells/mL, and this suspension was dispensed into a V-bottom 96-well plate (Thermo Fisher Scientific, Inc.) at 25 μL (1×10⁵ cells)/well.
# (§5) The cells were collected by centrifugation and washed with 120 μL of FACS buffer. This washing operation was repeated twice. To the cell sediment, 25 μL each of Goat Anti-Mouse IgG H&L (DyLight 650) (Abcam) that was a secondary antibody diluted by 500 times in FACS buffer was dispensed, then suspended, and then allowed to stand at 4° C. for 1 hour. The cells were washed twice, then suspended in 50 μL of FACS buffer, and the whole content thereof was transferred to a V-bottom 96-well plate (Greiner), to measure the binding of antibodies to the cells using a flow cytometer (Agilent Novocyte).
# [3] = target: T2, mouse LPA3 with FLAG tag (mouse LPA3 …); assay: as above
# Description: as §3, §4, §5
# [4] = target: T4, mouse LPA2 with FLAG tag (mouse LPA2 gene transfected cell) (mouse, UniProt Q9JL06 1-348); assay: as above
# T4 construct: not shown: FLAG tag added at the 5' terminal of the gene
# Description: as §3, §4, §5
# [5] = target: T5, human LPA2 with FLAG tag (human LPA2 gene transfected cell) (human, UniProt Q9HBW0 1-348); assay: as above
# T5 construct: also called EDG4; not shown: FLAG tag added at the 5' terminal of the gene
# Description: as §3, §4, §5
# human LPA1 [6] = target: T3, human LPA1; assay: cell-based or functional assay
# mouse LPA1 [7] = target: T6, mouse LPA1 (mouse, UniProt P61793 1-364); assay: cell-based or functional assay
# mouse LPA1 [8] = target: T6, mouse LPA1; assay: flow cytometry, mouse LPA1-stably expressing CHO cells, median fluorescence intensity
# Description: as §1, §2
# human LPA1 [9] = target: T3, human LPA1; assay: cell-based or functional assay; remark: listed apart in the source
# mouse LPA1 [10] = target: T6, mouse LPA1; assay: cell-based or functional assay; remark: listed apart in the source
# T6 sequence (P61793 whole entry): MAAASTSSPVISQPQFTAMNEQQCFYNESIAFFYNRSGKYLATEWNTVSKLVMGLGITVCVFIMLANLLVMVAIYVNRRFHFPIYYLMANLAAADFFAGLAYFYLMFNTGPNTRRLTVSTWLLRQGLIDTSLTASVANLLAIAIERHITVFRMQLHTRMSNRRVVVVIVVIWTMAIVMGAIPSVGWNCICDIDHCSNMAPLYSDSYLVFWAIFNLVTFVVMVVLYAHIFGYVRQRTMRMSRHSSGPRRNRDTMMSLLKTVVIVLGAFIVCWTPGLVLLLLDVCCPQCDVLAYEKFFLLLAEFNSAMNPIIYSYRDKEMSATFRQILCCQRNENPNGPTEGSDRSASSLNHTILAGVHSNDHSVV
# T5 sequence (Q9HBW0 other isoform, or with tags, fused parts or gaps): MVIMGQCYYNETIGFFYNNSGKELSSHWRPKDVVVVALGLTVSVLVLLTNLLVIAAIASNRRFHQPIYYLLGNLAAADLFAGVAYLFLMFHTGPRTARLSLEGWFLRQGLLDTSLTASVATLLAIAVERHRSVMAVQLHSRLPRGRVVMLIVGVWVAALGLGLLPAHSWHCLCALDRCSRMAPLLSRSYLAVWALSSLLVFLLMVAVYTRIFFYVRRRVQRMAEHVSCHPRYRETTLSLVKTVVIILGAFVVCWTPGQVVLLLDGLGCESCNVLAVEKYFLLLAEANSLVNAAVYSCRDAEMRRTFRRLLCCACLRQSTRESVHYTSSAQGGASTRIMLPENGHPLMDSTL
# T4 sequence (Q9JL06 whole entry): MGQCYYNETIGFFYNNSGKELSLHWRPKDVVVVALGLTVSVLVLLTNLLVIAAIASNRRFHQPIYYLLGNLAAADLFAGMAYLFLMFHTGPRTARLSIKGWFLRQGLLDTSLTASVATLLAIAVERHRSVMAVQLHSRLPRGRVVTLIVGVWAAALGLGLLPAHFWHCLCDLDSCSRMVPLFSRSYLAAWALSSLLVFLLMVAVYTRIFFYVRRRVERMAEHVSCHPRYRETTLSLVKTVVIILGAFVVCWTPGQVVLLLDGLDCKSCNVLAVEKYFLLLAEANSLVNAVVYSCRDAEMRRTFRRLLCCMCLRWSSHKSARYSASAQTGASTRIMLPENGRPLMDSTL
# T3 sequence (Q92633 whole entry): as the sequence (P61793 whole entry) above, with A4I, S8I, Q22P, Y40H, V61I, D193E, H194N, V269I, N331S, N335T counted along it
Binder,EC50 (human LPA1 [1]),binding result [2],binding result [3],binding result [4],binding result [5],Intracellular cAMP signaling inhibition (Inhibition rate %/100 nM) (human LPA1 [6]),Intracellular cAMP signaling inhibition (Inhibition rate %/100 nM) (mouse LPA1 [7]),EC50 (mouse LPA1 [8]),Intracellular cAMP signaling inhibition IC50 (human LPA1 [9]),Intracellular cAMP signaling inhibition IC50 (mouse LPA1 [10])
B1,1.8 nM,no binding (tested: 25 g/mL (so in the source)),no binding (tested: 25 g/mL (so in the source)),no binding (tested: 25 g/mL (so in the source)),no binding (tested: 25 g/mL (so in the source)),51%,53%,2.1 nM,18 nM,163 nM
B2,4.2 nM,no binding (tested: 25 g/mL (so in the source)),no binding (tested: 25 g/mL (so in the source)),no binding (tested: 25 g/mL (so in the source)),no binding (tested: 25 g/mL (so in the source)),22%,49%,2.3 nM,96.8 nM,199 nM
B3,1.9 nM,no binding (tested: 25 g/mL (so in the source)),no binding (tested: 25 g/mL (so in the source)),no binding (tested: 25 g/mL (so in the source)),no binding (tested: 25 g/mL (so in the source)),44%,50%,1 nM,33.1 nM,114 nM
B4,2 nM,no binding (tested: 25 g/mL (so in the source)),no binding (tested: 25 g/mL (so in the source)),no binding (tested: 25 g/mL (so in the source)),no binding (tested: 25 g/mL (so in the source)),24%,46%,1.3 nM,48.3 nM,124 nM
